Data taken from patent US20180346602A1.
Where a chain is given by its changes, count along the chain named.

B1: anti-variant (human) Fc-region antibody M1.3.17 (antibody, V domains shown)
VH: EVKLLESGGGLVQPGGSLKLSCAASGIDFRRYWMNWVRQAPGKGLEWIGEIDPDSSTINYTPSLKDKFIISRDNAKNTMYLQMRKVRSEDTALYYCARPYDYGAWFAYWGQGTLVTVSA
VL: QAVVTQESALTTSPGETVTLTCRSTTGAVTTSNYANWVQEKPDHLFTGLIGGTNKRAPGVPARFSGSLIGDKAALTITGAQTEDEAIYFCALWYSDHWVFGGGTKLTVL
B2: anti-AAA variant Fc-region antibody M1.6.22 (antibody, V domains shown)
VH: EVQLVESGGDLVKPGGSLKLSCAASGFTFSSYGMSWVRQTPDKRLEWVATISSGGSYIYYPDSVKGRFTISRDNAKNTLYLQMSSLKSEDTAMYYCARLGMITTGYAMDYWGQGTSVTVSS
VL: DVLMTQTPLSLPVSLGDQASISCRSSQTIVHSTGHTYLEWFLQKPGQSPKLLIYKVSNRFSGVPDRFSGSGSGTDFTLKISRVEAEDLGVYYCFQGSHVPYTFGGGTKLEIK
B3: anti-variant (human) Fc-region antibody M1.7.24 (antibody, V domains shown)
VH: B1 VH with I27F, R30S, D52T, M79L, R84I, A97V, Y108S
VL: B1 VL with T25S, D96N

What follows are binders tested against anti-VEGF/ANG2 antibody (IgG1 subclass with mutations P329G/L234A/L235A/I253A/H310A/H435A) [IgG part: P01857] (assay: sandwich ELISA assay A; capture M1.7.10-Bi; antibody 1 at 6 ng/mL).

| Binder | signal [OD405 nm] |
| --- | --- |
| B1 | 0.042 OD405 nm |
| B2 | 0.057 OD405 nm |
| B3 | 0.045 OD405 nm |

Each binder was assayed against anti-VEGF/ANG2 antibody (IgG1 subclass with mutations P329G/L234A/L235A) [IgG part: P01857] (assay: sandwich ELISA assay A; capture M1.7.10-Bi; antibody 2 at 3 ng/mL).

| Binder | signal [OD405 nm] |
| --- | --- |
| B1 | 1.22 OD405 nm |
| B2 | 0.039 OD405 nm |
| B3 | 1.73 OD405 nm |

What follows are binders tested against anti-IGF-1R antibody (IgG1 subclass with mutations I253A/H310A/H435A) [IgG part: P01857] (assay: sandwich ELISA assay A; capture M1.7.10-Bi; antibody 3 at 2 ng/mL).

| Binder | signal [OD405 nm] |
| --- | --- |
| B1 | 0.042 OD405 nm |
| B2 | 0.199 OD405 nm |
| B3 | 0.048 OD405 nm |

The binders below were run against anti-VEGF/ANG2 antibody (IgG1 subclass with mutations P329G/L234A/L235A/I253A/H310A/H435A) [IgG part: P01857] (assay: sandwich ELISA assay A; capture M1.7.10-Bi; antibody 1 at 13 ng/mL).

| Binder | signal [OD405 nm] |
| --- | --- |
| B1 | 0.04 OD405 nm |
| B2 | 0.061 OD405 nm |
| B3 | 0.047 OD405 nm |

The binders below were run against anti-VEGF/ANG2 antibody (IgG1 subclass with mutations P329G/L234A/L235A/I253A/H310A/H435A) [IgG part: P01857] (assay: sandwich ELISA assay A; capture M1.7.10-Bi; antibody 1 at 50 ng/mL).

| Binder | signal [OD405 nm] |
| --- | --- |
| B1 | 0.043 OD405 nm |
| B2 | 0.06 OD405 nm |
| B3 | 0.051 OD405 nm |

What follows are binders tested against anti-VEGF/ANG2 antibody (IgG1 subclass with mutations P329G/L234A/L235A) [IgG part: P01857] (assay: sandwich ELISA assay A; capture M1.7.10-Bi; antibody 2 at 13 ng/mL).

| Binder | signal [OD405 nm] |
| --- | --- |
| B1 | 2.7 OD405 nm |
| B2 | 0.051 OD405 nm |
| B3 | 2.52 OD405 nm |

These binders were tested against anti-IGF-1R antibody (IgG1 subclass with mutations I253A/H310A/H435A) [IgG part: P01857] (assay: sandwich ELISA assay A; capture M1.7.10-Bi; antibody 3 at 50 ng/mL).

| Binder | signal [OD405 nm] |
| --- | --- |
| B1 | 0.044 OD405 nm |
| B2 | 2.74 OD405 nm |
| B3 | 0.048 OD405 nm |

These binders were tested against anti-VEGF/ANG2 antibody (wild-type IgG1 subclass) [IgG part: P01857] (assay: sandwich ELISA assay A; capture M1.7.10-Bi; antibody 5 at 50 ng/mL).

| Binder | signal [OD405 nm] |
| --- | --- |
| B1 | 0.041 OD405 nm |
| B2 | 0.045 OD405 nm |
| B3 | 0.048 OD405 nm |

These binders were tested against anti-P-Selectin antibody (IgG4 subclass with mutations S228P/L235E) [IgG part: P01861] (assay: sandwich ELISA assay A; capture M1.7.10-Bi; antibody 4 at 0 ng/mL (blank)).

| Binder | signal [OD405 nm] |
| --- | --- |
| B1 | 0.036 OD405 nm |
| B2 | 0.043 OD405 nm |
| B3 | 0.045 OD405 nm |

What follows are binders tested against anti-IGF-1R antibody (IgG1 subclass with mutations I253A/H310A/H435A) (human) [IgG part: P01857] (assay: sandwich ELISA assay C; capture on SA plate; tracer FcγRI-Dig; analyte 13 ng/mL).

| Binder | signal [OD405 nm] |
| --- | --- |
| B1 | 1.21 OD405 nm |
| B2 | 0.175 OD405 nm |
| B3 | 0.058 OD405 nm |

The binders below were run against anti-VEGF/ANG2 antibody (IgG1 subclass with mutations P329G/L234A/L235A) (human) [IgG part: P01857] in the same assay as above.

| Binder | signal [OD405 nm] |
| --- | --- |
| B1 | 1.23 OD405 nm |
| B2 | 0.061 OD405 nm |
| B3 | 0.06 OD405 nm |

What follows are binders tested against anti-VEGF/ANG2 antibody (IgG1 subclass with mutations P329G/L234A/L235A/I253A/H310A/H435A) (human) [IgG part: P01857] in the same assay as above.

| Binder | signal [OD405 nm] |
| --- | --- |
| B1 | 1.14 OD405 nm |
| B2 | 0.064 OD405 nm |
| B3 | 0.085 OD405 nm |

What follows are binders tested against anti-IGF-1R antibody (IgG1 subclass with mutations I253A/H310A/H435A) (human) [IgG part: P01857] (assay: sandwich ELISA assay C; capture on SA plate; tracer FcγRI-Dig; analyte 25 ng/mL).

| Binder | signal [OD405 nm] |
| --- | --- |
| B1 | 1.2 OD405 nm |
| B2 | 0.401 OD405 nm |
| B3 | 0.073 OD405 nm |

The binders below were run against anti-P-Selectin antibody (IgG4 subclass with mutations S228P/L235E) (human) [IgG part: P01861] in the same assay as above.

| Binder | signal [OD405 nm] |
| --- | --- |
| B1 | 1.17 OD405 nm |
| B2 | 0.06 OD405 nm |
| B3 | 0.07 OD405 nm |

Each binder was assayed against anti-VEGF/ANG2 antibody (IgG1 subclass with mutations P329G/L234A/L235A) (human) [IgG part: P01857] in the same assay as above.

| Binder | signal [OD405 nm] |
| --- | --- |
| B1 | 1.21 OD405 nm |
| B2 | 0.063 OD405 nm |
| B3 | 0.083 OD405 nm |

These binders were tested against anti-VEGF/ANG2 antibody (IgG1 subclass with mutations P329G/L234A/L235A/I253A/H310A/H435A) (human) [IgG part: P01857] in the same assay as above.

| Binder | signal [OD405 nm] |
| --- | --- |
| B1 | 1.07 OD405 nm |
| B2 | 0.081 OD405 nm |
| B3 | 0.082 OD405 nm |

Each binder was assayed against anti-IGF-1R antibody (IgG1 subclass with mutations I253A/H310A/H435A) (human) [IgG part: P01857] (assay: sandwich ELISA assay C; capture on SA plate; tracer FcγRI-Dig; analyte 50 ng/mL).

| Binder | signal [OD405 nm] |
| --- | --- |
| B1 | 1.21 OD405 nm |
| B2 | 1.06 OD405 nm |
| B3 | 0.095 OD405 nm |

The binders below were run against anti-P-Selectin antibody (IgG4 subclass with mutations S228P/L235E) (human) [IgG part: P01861] in the same assay as above.

| Binder | signal [OD405 nm] |
| --- | --- |
| B1 | 1.15 OD405 nm |
| B2 | 0.054 OD405 nm |
| B3 | 0.066 OD405 nm |

What follows are binders tested against anti-VEGF/ANG2 antibody (IgG1 subclass with mutations P329G/L234A/L235A) (human) [IgG part: P01857] in the same assay as above.

| Binder | signal [OD405 nm] |
| --- | --- |
| B1 | 1.21 OD405 nm |
| B2 | 0.057 OD405 nm |
| B3 | 0.094 OD405 nm |

Each binder was assayed against anti-VEGF/ANG2 antibody (IgG1 subclass with mutations P329G/L234A/L235A/I253A/H310A/H435A) (human) [IgG part: P01857] in the same assay as above.

| Binder | signal [OD405 nm] |
| --- | --- |
| B1 | 1.17 OD405 nm |
| B2 | 0.077 OD405 nm |
| B3 | 0.084 OD405 nm |

The binders below were run against anti-IGF-1R antibody (IgG1 subclass with mutations I253A/H310A/H435A) (human) [IgG part: P01857] (assay: sandwich ELISA assay B; capture on SA plate; tracer M1.7.10-Dig; analyte 25 ng/mL).

| Binder | signal [OD405 nm] |
| --- | --- |
| B1 | 0.046 OD405 nm |
| B2 | 2.89 OD405 nm |
| B3 | 0.048 OD405 nm |

These binders were tested against anti-P-Selectin antibody (IgG4 subclass with mutations S228P/L235E) (human) [IgG part: P01861] in the same assay as above.

| Binder | signal [OD405 nm] |
| --- | --- |
| B1 | 0.047 OD405 nm |
| B2 | 0.048 OD405 nm |
| B3 | 0.04 OD405 nm |

Each binder was assayed against anti-VEGF/ANG2 antibody (IgG1 subclass with mutations P329G/L234A/L235A) (human) [IgG part: P01857] in the same assay as above.

| Binder | signal [OD405 nm] |
| --- | --- |
| B1 | 0.213 OD405 nm |
| B2 | 0.092 OD405 nm |
| B3 | 3.16 OD405 nm |

The binders below were run against anti-VEGF/ANG2 antibody (IgG1 subclass with mutations P329G/L234A/L235A/I253A/H310A/H435A) (human) [IgG part: P01857] in the same assay as above.

| Binder | signal [OD405 nm] |
| --- | --- |
| B1 | 0.035 OD405 nm |
| B2 | 0.044 OD405 nm |
| B3 | 0.047 OD405 nm |
